This note sets out measurements from patent publication US11161884B2 (SAVID THERAPEUTICS INC., priority 2014, dated 2021).

Data set [1] has as its target T1, Pro-EPR-mFc (extracellular domain of epiregulin fused with murine Fc region) (Homo sapiens, UniProt O14944).
T1 construct: made in house; host or cells: Expi293F cells, pcDNA3.4 vector
Put plainly: SPR antigen binding potential (Biacore T200). To be noted: for Kd: SPR kinetics assay, Pro-EPR-mFc captured on CM5, read-out: affinity to the antigen after FITC labeling. The text has this:
Next, in order to confirm whether the labeling reduced the binding potential or not, the antigen binding potential of anti-epiregulin scFv-V2122-FITC was confirmed by SPR (Biacore T200). More specifically, protein (Pro-EPR-mFc) obtained by fusing the extracellular domain of epiregulin which functions as a ligand with murine Fe region is captured on the sensor chip CM5 having anti-Murine IgG antibody immobilized thereon, and then eluted for kinetics assay with an analyte composed of a two-fold dilution series prepared by diluting a 20 nM anti-epiregulin scFv-V2122-FITC solution into nine steps (FIG. 14). […] Also epiregulin IgG and anti-epiregulin scFv protein were investigated in the binding test in the same way as described above, using a two-fold dilution series prepared by diluting a 300 nM solution into nine steps (FIG. 14). Data was analyzed using Biacore evaluation software.

In data set [2] the test system is DLD1 cells. Put plainly: Cell staining and analysis of internalization. To be noted: for staining of the surface of the cell membrane: DLD1, 25 nM, 50 nM and 100 nM. It counts as cell-based, human. As to the method: Human colorectal cancer-derived DLD1 cells, used for cell staining, were cultured in a complete medium RPNI1640 (containing 10% FBS), and seeded in uClear 96-well plate (Greiner) in a density of 1×10^4 cells/well, two days before the assay. In the cell staining, first the medium was replaced with a complete medium added with Hoechst 33342 so as to adjust the concentration to 1 μM, and 15 minutes after, each of anti-epiregulin scFv-V2122-FITC, epiregulin IgG-FITC and anti-epiregulin scFv-FITC was added to the individual wells so as to adjust the concentration to 25 nM, 50 nM and 100 nM.
Binding of antibody to the cell surface, and internalization were analyzed using IN Cell Analyzer 6000 (GE Healthcare BioScience Corp.), and recorded by time lapse imaging at 5 minute intervals.

In data set [3] the test system is DLD1 cells having epiregulin expressed. Put plainly: FACS analysis of cell surface binding potential. To be noted: 0, 0.5, 5, 50 nM, on ice 30 minutes. It counts as cell-based, human. As to the method:
Cell surface binding potential was determined by FACS, using labeled antibodies that are anti-epiregulin scFv-V2122-FITC, epiregulin IgG-FITC and anti-epiregulin scFv-FITC. More specifically, dilute solutions of the labeled antibodies having concentrations of 0 nM, 0.5 nM, 5 nM and 50 nM were allowed to react on ice for 30 minutes with DLD1 cells (1×10^6 cells/mL, […]) having epiregulin expressed therein, and then fluorescence was measured using flow cytometer guava easyCyte 5. The measurement followed the usage and dosage instructions given in the manual of the instrument.

The subject of data set [4] is DLD1 tumor. The data set can be described thus: In vivo imaging, DLD1 heterotransplantation model. Conditions: 25, 50, 100 μg intravenously, pre-labeled with Psyche F-IRDye 800; imaging 2, 24, 48 hours. More on the design: species or system nude mice. As to the method:
The thus purified anti-epiregulin scFv-V2122 was mixed with Psyche F-IRDye 800 (Compound 44 in Example) dissolved in DMSO (final concentration was ten-fold molar concentration), and the mixture was incubated on ice for 10 minutes. The buffer was then replaced with Japanese Pharmacopoeia physiological saline (Otsuka Pharmaceutical Co., Ltd.) using Zeba Spin Desalting Column (Thermo Fisher Scientific Inc.) and was stored under cooling. Epiregulin IgG was labeled using ICG Labeling Kit-NH2 (Dojindo Laboratories).
Suspension liquid of human colorectal cancer-derived DLD1 cell and Matrigel Matrix (Corning) were mixed in a ratio of 1:1 (5×10^6 cells/0.1 mL), and 0.1 mL of the mixed liquid was administered subcutaneously in the left side of 5 to 6-week-old female nude mice (Sankyo Labo Service Corporation, Inc.). The mice were bred for several weeks to produce tumor. One week before imaging, the feed was switched to a low fluorescence feed (iVid #1, Oriental Yeast Co., Ltd.) and the breeding was continued. […]
Anti-epiregulin scFv-V2122 antibody (25 μg, 50 μg, 100 μg) preliminarily labeled with fluorescence by allowing it to react with Psyche F-IRDye 800 (Compound 44 in Example), or fluorescent-labeled epiregulin IgG (50 μg) was intravenously administered to nude mice having established DLD1 tumor. […]

Data set [5] can be described thus: Immunogenicity testing, antibody in serum analyzed by SPR. The class given is in vivo, crab-eating monkey (Macaca fascicularis). To be noted: 1 mg purified protein administered three times (Day 0, 21, 42); four monkeys. As to the method:
Immunogenicity testing was conducted using four crab-eating monkeys. One milligram of the purified protein was administered three times. Before administration, blood was collected for preparing a negative control serum, followed by three times of administration of 1 mg each of purified protein. More specifically, letting the first day of administration of Day 0, the second administration fell on Day 21, and the third administration fell on Day 42. For V2122, blood was collected on Days 7, 14, 28 and 35 to prepare serum samples, and for the other, blood was collected on Days 7, 14, 28, 35, 49 and 56 to prepare serum samples.
Antibody against V2122 in the serum samples was analyzed by surface plasmon resonance (SPR). More specifically, Biacore T200 (GE Healthcare BioScience Corp.) was used as a measuring instrument, which was operated in the mode using immunogenicity package. The sensor chip was CM5. As instructed by the manual, V2122 protein (10 μg/mL) was immobilized on the CM5 sensor chip using an amine coupling kit. Serum was diluted ten-fold with a running buffer (HBS-EP, GE Healthcare BioScience Corp.) for the interaction analysis. More specifically, the serum diluted ten-fold was loaded into the running buffer at a flow rate of 10 μL/min for 5 minutes. The obtained sensorgram was analyzed using an analytical software named Biacore T200 Evaluation Software.
In general terms: In SPR one partner is held on a chip, and binding of the other changes the refractive index at the surface.

The nature of data set [6]: SPR interaction of streptavidin mutants with biotin (Comparative Example 1). It counts as binding. Conditions: biotin 1.8-1800 nM; protein immobilized via His-Tag. The protocol: (§1) More specifically, using Biacore T200 (GE Healthcare BioScience Corp.) as a measuring instrument, and Sensor Chip NTA (GE Healthcare BioScience Corp.) as a sensor chip, the protein was immobilized on the sensor chip by way of His-Tag having been fused to the core protein. The running buffer was prepared using HBS-P(+), as described in the manual. A dilution series of Compound was prepared by using the running buffer in seven steps of 1.8 nM, 9 nM, 18 nM, 90 nM, 180 nM, 900 nM and 1800 nM, to obtain data.

Data set [7] is described as follows: SPR interaction of streptavidin mutants with Compound C (Comparative Example 2). The class given is binding. Conditions: Compound C 1.8-1800 nM; protein immobilized via His-Tag.
Source text: as §1, with “Using the purified two […] core streptavidin mutants (cSA-Y43A, cSA-S45A) described above, and purified V2122 protein, interaction with Compound C was investigated by surface plasmon resonance (SPR). More” for “More”

T1 sequence (O14944 with tags, fused parts or gaps): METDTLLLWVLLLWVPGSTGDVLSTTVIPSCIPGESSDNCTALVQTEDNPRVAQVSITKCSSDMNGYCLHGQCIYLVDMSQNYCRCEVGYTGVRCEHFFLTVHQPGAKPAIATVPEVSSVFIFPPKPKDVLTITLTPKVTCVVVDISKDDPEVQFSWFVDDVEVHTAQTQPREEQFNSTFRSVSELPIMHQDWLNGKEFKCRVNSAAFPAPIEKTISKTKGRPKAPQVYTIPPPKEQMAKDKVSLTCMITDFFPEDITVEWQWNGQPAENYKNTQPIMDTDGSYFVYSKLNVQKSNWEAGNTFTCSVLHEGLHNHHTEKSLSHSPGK

B1: anti-epiregulin scFv-V2122-FITC: FITC-labeled product of purified anti-epiregulin scFv-V2122 (protein)
scFv: QVQLQQSGAEVKKPGASVKVSCKASGFNIKDTYMHWVRQAPEQGLEWMGRIDPLNDKTKYDPKFQGRVTITADTSTNTAYLELSSLTSEDTAVYYCARGGGDPVFVYWGQGTLVTVSASSGGGGSGGGGSGGGGSGGGGSGGDIQMTQSPSSLSASVGDRVTITCKASQDINKYLAWYQHKPGQAPRLLIHYTSTLHPGIPSRFSGSGSGTDFTFSISSLQPEDIATYYCLQYDNLRTFGGGTKVEIKRTSGGGGSGGGGAEAGITGTWSDQLGDTFIVTAGADGALTGTYENAVGGAESRYVLTGRYDSAPATDGSGTALGWTVAWKNNSKNAHSATTWSGQYVGGADAKINTQWLLTSGTTNANAWKSTLVGHDTFTKVKPSAASHHHHHH
As to B1, in data set [1], the “affinity relative to epiregulin IgG-FITC and anti-epiregulin scFv-FITC” value was 100 to 1000 times; the Kd came to 0.23 nM. Besides, the “time at which internalization began to be observed after addition of antibody” value in data set [2] (DLD1) is “approximately 10 minutes”. For the same molecule, the “staining of the surface of the cell membrane” value in data set [2] is on record as “staining of the surface of the cell membrane was observed”. Moreover, the “migration of fluorescence into the cytoplasm” value in data set [2] (DLD1, sixty-five minutes after addition) was “almost entire part of fluorescence was found to migrate into the cytoplasm”. Also, the internalization entry in data set [2] (DLD1, time lapse imaging at 5 minute intervals) is reported as “distinct internalization was observed”. Besides, the “cell surface binding potential by FACS” value in data set [3] is recorded as “equivalent levels of binding potential”.

B2: anti-epiregulin scFv-V2122: fusion protein formed by anti-epiregulin scFv and V2122; SEQ ID NO: 30 (protein)
chain: MKYLLPTAAAGLLLLAAQPAMAQVQLQQSGAEVKKPGASVKVSCKASGFNIKDTYMHWVRQAPEQGLEWMGRIDPLNDKTKYDPKFQGRVTITADTSTNTAYLELSSLTSEDTAVYYCARGGGDPVFVYWGQGTLVTVSASSGGGGSGGGGSGGGGSGGGGSGGDIQMTQSPSSLSASVGDRVTITCKASQDINKYLAWYQHKPGQAPRLLIHYTSTLHPGIPSRFSGSGSGTDFTFSISSLQPEDIATYYCLQYDNLRTFGGGTKVEIKRTSGGGGSGGGGAEAGITGTWSDQLGDTFIVTAGADGALTGTYENAVGGAESRYVLTGRYDSAPATDGSGTALGWTVAWKNNSKNAHSATTWSGQYVGGADAKINTQWLLTSGTTNANAWKSTLVGHDTFTKVKPSAASHHHHHH
Turning to B2, the accumulation in tumor entry in data set [4] was “accumulate in the tumor of the model mice earlier (2 hours after administration) than the labeled IgG”.

B3: V2122: glycine mutant (N49G) of V212 streptavidin mutant; amino acid sequence SEQ ID NO: 4 (protein)
chain: AEAGITGTWSDQLGDTFIVTAGADGALTGTYENAVGGAESRYVLTGRYDSAPATDGSGTALGWTVAWKNNSKNAHSATTWSGQYVGGADAKINTQWLLTSGTTNANAWKSTLVGHDTFTKVKPSAAS
For B3, the immunogenicity result in data set [5] was “low as compared with the immunogenicity of the wild-type streptavidin and LISA314”. The “interaction with biotin (sensorgram)” value in data set [6] is recorded as “absence of specific binding”. Moreover, in data set [7], the “interaction with Compound C (sensorgram)” value was “specific binding showing only an extremely slow dissociation”.

B4: anti-epiregulin scFv-FITC: FITC-labeled anti-epiregulin scFv protein (SEQ ID NO: 22) (protein)
scFv: MKYLLPTAAAGLLLLAAQPAMAQVQLQQSGAEVKKPGASVKVSCKASGFNIKDTYMHWVRQAPEQGLEWMGRIDPLNDKTKYDPKFQGRVTITADTSTNTAYLELSSLTSEDTAVYYCARGGGDPVFVYWGQGTLVTVSASSGGGGSGGGGSGGGGSGGGGSGGDIQMTQSPSSLSASVGDRVTITCKASQDINKYLAWYQHKPGQAPRLLIHYTSTLHPGIPSRFSGSGSGTDFTFSISSLQPEDIATYYCLQYDNLRTFGGGTKVEIKRTSHHHHHH
modifications: FITC label
Take B4: the Kd in data set [1] came out at 120 nM. For the same molecule, the “staining of the surface of the cell membrane” value in data set [2] is recorded as “staining of the surface of the cell membrane was observed”. Besides, the “cell surface binding potential by FACS” value in data set [3] was “level of binding potential lower than those shown by the former two”.
